# B1: monoclonal antibody S2C6 (antibody, V domains shown)
# VH: EVQLQQSGPDLVKPGASVKISCKASGYSFTGYYIHWVKQSHGKSLEWIGRVIPNNGGTSYNQKFKGKAILTVDKSSSTAYMELRSLTSEDSAVYYCAREGIYWWGHGTTLTVSS
# VL: DVVVTQTPLSLPVSLGAQASISCRSSQSLVHSNGNTFLHWYLQKPGQSPKLLIYTVSNRFSGVPDRFSGSGSGTDFTLKISRVEAEDLGVYFCSQTTHVPWTFGGGTKLEIQ
# B2: anti-CD40 mAb G28-5 (antibody, V domains shown)
# VH: DIQLQQSGPGLVKPSQSLSLTCSVTGYSITTNYNWNWIRQFPGNKLEWMGYIRYDGTSEYTPSLKNRVSITRDTSMNQFFLRLTSVTPEDTATYYCARLDYWGQGTSVTVSS
# VL: DAVMTQNPLSLPVSLGDEASISCRSSQSLENSNGNTFLNWFFQKPGQSPQLLIYRVSNRFSGVPDRFSGSGSGTDFTLKISRVEAEDLGVYFCLQVTHVPYTFGGGTTLEIK
# Assays:
# [1] = target: T1, CD40 expressed on the surface of B cells (human, UniProt P25942 21-277); experiment: flow cytometry; soluble CD40L titrated on Ramos B cells
# [2] = target: T1, CD40 expressed on the surface of B cells; experiment: cell-based or functional assay
# T1 sequence (P25942 21-277): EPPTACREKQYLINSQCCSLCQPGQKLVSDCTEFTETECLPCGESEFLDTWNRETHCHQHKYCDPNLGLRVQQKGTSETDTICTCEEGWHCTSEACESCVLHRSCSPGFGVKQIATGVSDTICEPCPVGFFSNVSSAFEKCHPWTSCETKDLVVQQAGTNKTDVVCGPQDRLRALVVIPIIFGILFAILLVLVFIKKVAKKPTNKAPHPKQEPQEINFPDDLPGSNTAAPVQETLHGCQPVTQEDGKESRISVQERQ
molecule,measurement,setting,value
"recombinant human soluble CD40 ligand (CD154-muCD8), FITC-labeled (from UniProt P29965 47-261; P27548 47-260)",saturation concentration,[1],10 µg/mL
B1,"B cell proliferation (3H-thymidine incorporation) with CD40L+ T cell titration and 30 ng/ml mAb, over mAb-only stimulation",[2],3 fold
same,"B cell proliferation of primary human peripheral blood B cells with CD40L+ stimulator cells at 4:1 (B:T), against mAb alone",[2],16.2 fold
B2,"B cell proliferation (3H-thymidine incorporation) with CD40L+ T cell titration and 30 ng/ml mAb, over the level with mAb alone",[2],1.3 fold
same,"activation (proliferation) of primary human peripheral blood B cells with CD40L+ stimulator cells at 4:1 (B:T), against mAb alone",[2],2 fold

# From patent US6843989 (Seagen, dated 2005)
